Assay results from patent publication US7728193B2, “Phytochrome-interacting protein and a use thereof” (Genomine Inc., priority 2004, dated 2010).

Key:
[1] = In vitro phosphatase assay: enzymatic activity of PAPP5 and its domain fragments on ρNPP; assay type: biochemical; conditions: in the presence of 100 μM arachidonic acid
Procedure: In order to examine whether the inventive PAPP5 protein has enzymatic activity, an enzymatic assay was performed using […] ρ-nitrophenyl phosphate (ρNPP) as a substrate. First, the GST-PAPP5 fusion protein purified in Example <4-1> was prewarmed at 30° C. for 1 minute. The prewarmed enzyme solution was added to 100 μl of kinase/phosphatase (KP) buffer (20 mM Tris-HCl pH 7.5, 30 mM MgCl2, 1 mM EDTA, 1 mM EGTA, 0.1% β-mercaptoethanol, 0.1% ethanol) containing O-400 mM ρNPP to initiate a reaction. To examine the autohydrolysis of ρNPP at each substrate concentration, the GST-PAPP5 enzyme solution was not added to a control group. After reaction at 30° C. for 15 minutes, 900 μl of 0.25N NaOH was added to terminate the reaction. The absorbance at 410 nm was measured. After subtracting the absorbance value of the control reaction solution containing all the components except for the enzyme from that of the reaction solution containing the enzyme, the rate was calculated using a millimolar extinction coefficient (17.8) of ρ-nitrophenolate ions.
Thus, in order to confirm if PAPP5 also have this property, the present inventors examined the phosphatase activities of GST-PAPP5, GST-TPR and GST-PP2Ac in the same manner as in Example <6-1>. At this time, the concentration of ρNPP was 100 mM.

[2] = biological target: T1, Arabidopsis thaliana phytochrome A (Arabidopsis thaliana, UniProt P14712); assay: Yeast two-hybrid analysis of specificity of interaction; assay type: cell-based; conditions: EGY48 yeast, Leu-drop out and X-gal media
T1 construct: expressed in transfected cells; host or cells: EGY48 yeast strain with pSH18-34 reporter
T1 sequence (P14712 1-1122): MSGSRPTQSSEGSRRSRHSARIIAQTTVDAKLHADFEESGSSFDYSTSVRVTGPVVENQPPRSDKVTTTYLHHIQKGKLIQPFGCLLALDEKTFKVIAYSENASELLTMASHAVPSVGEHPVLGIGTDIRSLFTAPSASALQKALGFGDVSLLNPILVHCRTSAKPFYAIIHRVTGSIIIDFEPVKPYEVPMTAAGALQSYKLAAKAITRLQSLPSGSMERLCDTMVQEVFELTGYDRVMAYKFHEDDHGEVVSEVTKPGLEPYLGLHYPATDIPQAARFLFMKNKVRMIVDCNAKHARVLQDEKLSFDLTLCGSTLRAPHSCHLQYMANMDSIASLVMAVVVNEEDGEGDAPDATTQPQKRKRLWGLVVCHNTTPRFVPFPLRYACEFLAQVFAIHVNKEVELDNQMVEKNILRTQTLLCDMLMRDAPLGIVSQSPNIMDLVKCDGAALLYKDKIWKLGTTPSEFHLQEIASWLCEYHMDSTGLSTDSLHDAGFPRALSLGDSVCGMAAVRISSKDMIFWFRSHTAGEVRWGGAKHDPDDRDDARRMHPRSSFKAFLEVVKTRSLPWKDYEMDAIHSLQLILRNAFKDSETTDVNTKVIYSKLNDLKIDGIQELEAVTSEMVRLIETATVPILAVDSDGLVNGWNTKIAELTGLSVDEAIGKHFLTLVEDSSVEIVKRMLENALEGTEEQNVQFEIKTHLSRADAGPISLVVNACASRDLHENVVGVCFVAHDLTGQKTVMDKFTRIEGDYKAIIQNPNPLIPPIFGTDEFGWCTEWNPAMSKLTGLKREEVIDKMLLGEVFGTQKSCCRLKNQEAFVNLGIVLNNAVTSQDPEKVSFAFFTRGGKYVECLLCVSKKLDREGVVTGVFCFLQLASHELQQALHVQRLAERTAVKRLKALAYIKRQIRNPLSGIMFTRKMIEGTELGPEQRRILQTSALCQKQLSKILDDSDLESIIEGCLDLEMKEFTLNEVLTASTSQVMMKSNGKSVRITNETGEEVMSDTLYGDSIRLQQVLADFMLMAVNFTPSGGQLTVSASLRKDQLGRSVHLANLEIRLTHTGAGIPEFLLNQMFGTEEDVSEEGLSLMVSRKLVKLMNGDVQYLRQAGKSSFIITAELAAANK
Text: A pGilda vector and a pJG4-5 vector (OriGene Technologies) were used to prepare a prey and a bait, […] (see FIG. 4). In this case, as control groups to examine specific binding, hepatitis C virus (HCV) protein NS5A(N) (distributed from professor S K Jang, Department of Life Science, Pohang University of Science and Technology, Korea) and another plant protein SPINDLY(SPY) having the TPR domain (Jacobsen, S. E., et al., Proc. Natl. Acad. Sci. U.S.A. 93:9292-9296, 1996) were used. Furthermore, the prey and the bait were interchanged to observe protein-protein binding by a reciprocal method. The prepared prey and bait together with a pSH18-34 reporter plasmid (OriGene Technologies) were co-introduced into an EGY48 yeast strain (OriGene Technologies). Next, the transformants were selected on a media containing X-gal (5-bromo-4-chloro-3-indolyl-β-D-galactopyranoside; Rose Scientific Ltd.). Plate-growth assays were performed on Leu-drop out media and X-gal media.

[3] = biological target: T2, phytochrome A (Arabidopsis thaliana, UniProt P14712); assay: In vitro binding assay (GST pull-down of 35S-labeled TnT protein); conditions: 1 μg GST-PAPP5 fusion protein, 4° C.
T2 sequence (P14712 1-1122): T1 sequence (P14712 1-1122)
T2 sequence (Q84XU2 1-484 isoform Q84XU2-2 partner): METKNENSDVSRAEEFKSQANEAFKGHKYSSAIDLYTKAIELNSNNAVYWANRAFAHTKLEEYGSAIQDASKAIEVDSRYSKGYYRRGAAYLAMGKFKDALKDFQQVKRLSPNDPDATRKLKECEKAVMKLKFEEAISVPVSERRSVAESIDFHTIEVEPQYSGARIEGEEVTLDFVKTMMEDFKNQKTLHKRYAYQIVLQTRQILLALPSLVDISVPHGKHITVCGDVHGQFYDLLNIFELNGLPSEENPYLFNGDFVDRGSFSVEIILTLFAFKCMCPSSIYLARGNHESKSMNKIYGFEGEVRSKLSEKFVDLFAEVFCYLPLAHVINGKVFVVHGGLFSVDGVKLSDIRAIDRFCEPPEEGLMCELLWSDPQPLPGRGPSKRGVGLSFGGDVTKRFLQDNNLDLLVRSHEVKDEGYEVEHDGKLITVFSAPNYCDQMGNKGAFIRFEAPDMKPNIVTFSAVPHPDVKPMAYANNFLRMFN

For “PAPP5: type 5 serine/threonine protein phosphatase of Arabidopsis thaliana interacting with phytochromes, SEQ ID NO: 4”, the “Km (Michaelis-Menten)” value [1] was 160 mM ρNPP, the “Vmax (Michaelis-Menten)” value [1] was 22 μmmol Pi released/min/mg and the “interaction with phytochrome A in yeast two-hybrid” value [2] was “interacted specifically”. For the same substance, the “binding to phytochrome A” value [3] was “has the property of binding”.
